Consider two molecules from paper PMC7324161, “Synergy between SIRT1 and SIRT6 helps recognize DNA breaks and potentiates the DNA damage response and repair in humans and mice” (eLife, 2020).

The test system of one data set is GST-SIRT6 K33R (human). Kind of data set: fluorescence polarization. Particulars: Pull-down: 10 mM Tris-Cl pH 7.5, 100 mM NaCl, 0.01% NP40, 10% glycerol, 4 C overnight, 10 pmol DNA and 0.5 ug protein in 300 ul; FP buffer not in material. On the technique in general: Polarisation of emitted light reports the rotation of a fluorescent probe.
Another data set relates to GST-SIRT6 WT (human). Kind of data set: fluorescence polarization. The following applies: 20 nM FAM-DNA; Pull-down: 10 mM Tris-Cl pH 7.5, 100 mM NaCl, 0.01% NP40, 10% glycerol, 4 C overnight, 10 pmol DNA and 0.5 ug protein in 300 ul; FP buffer not in material.
A further data set has as its target T1, GST-SIRT6 K33R (human, UniProt Q8N6T7 1-355, K33R).
T1 construct: SIRT6, human, lysine 33 to arginine, as GST fusion
Kind of data set: pull-down; 1 μg biotinylated peptide with 1 μg GST-SIRT6 in 50 mM Tris-HCl, 200 mM NaCl, 0.05% NP40 overnight at 4°C; Streptavidin Sepharose beads 1 hr at 4°C; western blot. Particulars: both partners purified.

Where no end group is shown, it is not given here. [ ]: non-standard residue; d: D form. The star is where a group is joined. Biotin = O=C1N[C@H]2[C@H](CS[C@H]2CCCCC(=O)*)N1; pS = N[C@@H](COP(=O)(O)O)C(=O)O

T1 sequence (Q8N6T7 whole entry K33R, the tested form may be a part): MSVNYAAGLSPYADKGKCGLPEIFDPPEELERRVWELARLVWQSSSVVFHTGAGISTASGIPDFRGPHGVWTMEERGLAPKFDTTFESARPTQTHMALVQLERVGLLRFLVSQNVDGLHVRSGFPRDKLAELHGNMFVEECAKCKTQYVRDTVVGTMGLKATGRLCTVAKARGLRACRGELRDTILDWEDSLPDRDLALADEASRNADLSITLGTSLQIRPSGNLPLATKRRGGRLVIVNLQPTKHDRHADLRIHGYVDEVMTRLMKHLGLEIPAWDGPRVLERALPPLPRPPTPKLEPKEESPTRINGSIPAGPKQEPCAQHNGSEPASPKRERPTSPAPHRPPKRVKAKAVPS

FAM-labeled DNA duplex: the results for the Kd in the data set with GST-SIRT6 K33R (human) and in the data set on GST-SIRT6 WT (human) were 105 nM and 166 nM, respectively.

B1: biotin-labeled C-terminal γH2AX peptide (peptide)
peptide: Biotin-GKKATQA[pS]QEY
notes: C terminus of H2AX, printed as BGKKATQApSQEY; also called biotin-γH2AXp; source: synthetic peptide (GL Biochem, Shanghai)
With B1, in the data set with GST-SIRT6 K33R, the binding result was “binds”.

The term Kd denotes the constant that tells how readily two partners part at equilibrium. Read a low Kd as tighter binding.
